Experimental findings from paper PMC2824011 are described below.

Substrate in this data set: O=c1ccc2nc3ccc(O[C@H]4O[C@H](CO)[C@@H](O)[C@H](O)[C@@H]4O)cc3oc-2c1
The data set is described as follows: continuous fluorometric kinetic assay of purified enzyme. Format: biochemical, Drosophila melanogaster.

B1: Golgi α-mannosidase II (dGMII) (Drosophila melanogaster) (protein)
chain: DDPIRPPLKVARSPRPGQCQDVVQDVPNVDVQMLELYDRMSFKDIDGGVWKQGWNIKYDPLKYNAHHKLKVFVVPHSHNDPGWIQTFEEYYQHDTKHILSNALRHLHDNPEMKFIWAEISYFARFYHDLGENKKLQMKSIVKNGQLEFVTGGWVMPDEANSHWRNVLLQLTEGQTWLKQFMNVTPTASWAIDPFGHSPTMPYILQKSGFKNMLIQRTHYSVKKELAQQRQLEFLWRQIWDNKGDTALFTHMMPFYSYDIPHTCGPDPKVCCQFDFKRMGSFGLSCPWKVPPRTISDQNVAARSDLLVDQWKKKAELYRTNVLLIPLGDDFRFKQNTEWDVQRVNYERLFEHINSQAHFNVQAQFGTLQEYFDAVHQAERAGQAEFPTLSGDFFTYADRSDNYWSGYYTSRPYHKRMDRVLMHYVRAAEMLSAWHSWDGMARIEERLEQARRELSLFQHHDGITGTAKTHVVVDYEQRMQEALKACQMVMQQSVYRLLTKPSIYSPDFSFSYFTLDDSRWPGSGVEDSRTTIILGEDILPSKHVVMHNTLPHWREQLVDFYVSSPFVSVTDLANNPVEAQVSPVWSWHHDTLTKTIHPQGSTTKYRIIFKARVPPMGLATYVLTISDSKPEHTSYASNLLLRKNPTSLPLGQYPEDVKFGDPREISLRVGNGPTLAFSEQGLLKSIQLTQDSPHVPVHFKFLKYGVRSHGDRSGAYLFLPNGPASPVELGQPVVLVTKGKLESSVSVGLPSVVHQTIMRGGAPEIRNLVDIGSLDNTEIVMRLETHIDSGDIFYTDLNGLQFIKRRRLDKLPLQANYYPIPSGMFIEDANTRLTLLTGQPLGGSSLASGELEIMQDRRLASDDERGLGQGVLDNKPVLHIYRLVLEKVNNCVRPSELHPAGYLTSAAHKASQSLLDPLDKFIFAENEWIGAQGQFGGDHPSAREDLDVSVMRRLTKSSAKTQRVGYVLHRTNLMQCGTPEEHTQKLDVCHLLPNVARCERTTLTFLQNLEHLDGMVAPEVCPMETAAYVSSHSS
As for B1, the Km was 200 (±73) μM.
